The text below walks through data of US20250325680A1, “HIGH-PERMEABILITY PROTEIN OR POLYPEPTIDE CONJUGATE AND USE THEREOF” (Hangzhou Tito Biotechnology Partnership Enterprise ( …, priority 2023, published 2025).

Data set [1] in a line: Intraocular permeation experiment after eye-dropping administration. Type of data set: in vivo. Conditions: mouse, 4 h, laser confocal imaging of eyeball sections. The protocol: 6.6 mg of BSA ([…]) was dissolved in 1 mL of PBS at pH 7.4, 66 μg of a fluorescent dye Cy5-NHS was added, and stirring was conducted for 6 h at room temperature. Ultrafiltration-washing was repeated multiple times to produce fluorescently-labeled ^Cy5BSA. The conjugate ^Cy5BSA-OPDMA and other protein conjugates were labeled by the same method.
Upper and lower eyelids of each mouse were gently pulled open with a cotton swab. Solutions of ^Cy5BSA and ^Cy5BSA-OPDMA in PBS each were dropped to a conjunctival sac of a mouse, and a few seconds later, eyelids were slowly closed. At 4 h after the eye-dropping administration, eyeballs were immediately collected, washed three times with PBS, fixed overnight in an FAS eyeball fixative solution, and then transferred to a 30% sucrose solution for dehydration. When sank to a bottom of the solution, eyeballs were carefully taken out, embedded with an optimal cutting temperature (OCT) embedding medium, and sectioned by a freezing microtome to produce 10 μm-thick eyeball sections. The eyeball sections were stained with a 4′,6-diamidino-2-phenylindole (DAPI) dye, and finally the fluorescence distributions of each solution in eyeballs and retinas were observed under a laser scanning confocal microscope. The fluorescence distribution inside a retina of a mouse eyeball was analyzed with Image J.

Data set [2] deals with CT26 tumor spheres. Briefly: Permeation in multicellular tumor spheres. The data set is classed as cell-based. Conditions: BSA 20 μg/mL, 2 h incubation. The procedure: The permeability of albumin and a conjugate BSA-OPDMA thereof was verified with multicellular tumor spheres. 1.0 mL of DMEM and the prepared CT26 tumor spheres were added to a confocal imaging dish, and then 20 μL of ^Cy5BSA-OPDMA or ^Cy5BSA was added (where a concentration of BSA was 20 μg/mL). After being incubated for 2 h, tumor spheres were subjected to laser scanning confocal microscopy imaging every 20 μm along a Z-axis. […] Moreover, the more the OPDMA bonded, the stronger the promotion on the permeability of BSA. […] OPDMA with a molecular weight of 10 k could more efficiently promote the penetration of ^Cy5BSA than OPDMA with a molecular weight of 5 k. This conclusion was further confirmed by the quantitative fluorescence data in FIG. 13.

The nature of data set [3]: Skin permeation experiment. Type of data set: in vivo, C57BL/6 mice. Particulars: mouse dorsal skin, 4 h after administration, laser confocal. The protocol:
C57BL/6 mice each with a body weight of 20 g were selected and randomly divided into four groups. The hair on the back of each mouse was removed with a depilatory cream. After 24 h of raising, a silicone diffusion cell was fixed on the back, and Cy5-labeled ^Cy5BSA and ^Cy5BSA-OPDMA were added at equal amounts. 4 h after the administration, the dorsal skin of each mouse was carefully collected, rinsed 3 times with PBS, and sectioned by a freezing microtome to produce 20 μm-thick skin sections. A skin permeation effect of each solution was observed under a laser scanning confocal microscope.

Data set [4] deals with laser-induced CNV model. Kind of data set: Laser-induced choroidal neovascularization (CNV) model, eye drops. Type of data set: in vivo, C57BL/6J mice. Particulars: eye drops 2 μL, 10 mg/ml of aflibercept, four times a day for 7 d, day 7. From the text:
40 female C57BL/6J mice at 6 to 8 weeks were selected, and the anterior segments of both eyes and the fundus were examined to be normal before the experiment. An unilateral eye of each mouse was selected and subjected to laser photocoagulation to establish a CNV model, where a corresponding contralateral eye was not treated. Then treated mice were randomly divided into a PBS group, an aflibercept-OPDMA conjugate group, an OPDMA+aflibercept mixture group, and an aflibercept intravitreal injection group. Immediately after the laser photocoagulation, mice in each group were administered with eye drops at a dose of (2 μL, 10 mg/ml of aflibercept) four times a day consecutively for 7 d. For the injection group, a dose was 10 μg/mouse, and the injection was conducted merely once during the experiment. After laser photocoagulation, on day 7 post-modeling, choroidal flat mounts were prepared from the experimental eyes. The flat mounts were subjected to antibody staining using IB4 and imaged under a fluorescence microscope. Thee neovascularization area was measured using image J software. These indices were used to assess the treatment efficacy of each group.

Regarding “^Cy5BSA-OPDMA: Cy5-labeled conjugate of BSA with OPDMA; chain number and weight not stated in the text”, the “intraocular permeation (fluorescence distribution in eyeballs and retinas)” value (“intraocular permeation” below) in data set [1] is “could penetrate into intraocular cells, especially a retina in a posterior segment of an eye”. Further, the “permeation in tumor spheres (fluorescence)” value in data set [2] was “presented a strong red fluorescence within tumor spheres”. Besides, in data set [3], the “skin permeation effect (fluorescence in skin sections)” value (from here on “skin permeation effect”) was “the fluorescence could penetrate into the deep skin”.
For “^Cy5BSA: BSA fluorescently labeled with Cy5-NHS [reference compound]”, in data set [1], the “intraocular permeation” value is “only adhered to a surface of an eyeball”. The “permeation in tumor spheres (fluorescence)” value in data set [2] is recorded as “could only reach the edges of tumor spheres”. In data set [3], the “skin permeation effect” value is given as “faint red fluorescence was observed merely in a surface layer of the skin”.
“aflibercept-OPDMA: conjugate of aflibercept with tertiary amine oxide polymer OPDMA”: the “therapeutic effect on CNV (neovascularization area)” value in data set [4] was “could indeed exert a therapeutic effect after being dropped to eyes”; in data set [4] (listed as aflibercept-OPDMA conjugate), “prominent therapeutic effect”. Also, the “intraocular permeation” value in data set [1] was “had a similar intraocular permeation ability”.
As to “aflibercept: the protein (aflibercept) itself”, in data set [3], the “skin permeation effect” value was “cannot permeate into the skin”.
